Results from article PMC6760140.
Where a chain is given by its changes, count along the chain named. Numbers in names are those of the source.

B1: 2544 Fab κC:P94T (protein)
chain 1: EVQLVESGGGLVQPGGSLRLSCVASGFTFSNYNMNWVRQAPGKGLEWLSYISSSSGTIYYADSVKGRFTISRDNAKNSMYLQMNSLRAEDTAVYYCVRVEYYYGSSGYYYDFDSWGQGTLVTVSS
chain 2: DIVMTQSPLSLPVTPGEPASISCRSSQSLLHNGYNYLDWYLQKPGQSPQLLIYLGSNRASGVPDRFSGSGSGTDFTLKISRVEAEDVGVYYCMQTLQTFTFGQGTRLEIK
B2: 2544 Fab HC:D100GY (protein)
chain 1: B1 chain 1 with D111Y
chain 2: B1 chain 2 with T98P
B3: 2544 Fab κC:F95P (protein)
chain 1: B1 chain 1
chain 2: B1 chain 2 with T98P, F99P
B4: 2544 Fab κC:T91A (protein)
chain 1: B1 chain 1
chain 2: B1 chain 2 with T95A, T98P
B5: 2544 Fab HC:G55S (protein)
chain 1: B1 chain 1 with G56S
chain 2: B1 chain 2 with T98P

Target: Recombinant His-tagged Pfs25, P13829
Assay: BLI
Conditions: chain shown with the change; immobilized Pfs25 and mutant Fab analyte; parent: est. 4.6; read off a plot

Binder | Kd
B1 | 14 nM
B2 | 18 nM
B3 | 22000 nM
B4 | 12 nM
B5 | 14 nM
